In PMC9352680, “A comprehensive thermodynamic model for RNA binding by the Saccharomyces cerevisiae Pumilio protein PUF4”:

T1: PUF4 RNA-binding domain (Saccharomyces cerevisiae, UniProt P25339 537-888)
T1 sequence: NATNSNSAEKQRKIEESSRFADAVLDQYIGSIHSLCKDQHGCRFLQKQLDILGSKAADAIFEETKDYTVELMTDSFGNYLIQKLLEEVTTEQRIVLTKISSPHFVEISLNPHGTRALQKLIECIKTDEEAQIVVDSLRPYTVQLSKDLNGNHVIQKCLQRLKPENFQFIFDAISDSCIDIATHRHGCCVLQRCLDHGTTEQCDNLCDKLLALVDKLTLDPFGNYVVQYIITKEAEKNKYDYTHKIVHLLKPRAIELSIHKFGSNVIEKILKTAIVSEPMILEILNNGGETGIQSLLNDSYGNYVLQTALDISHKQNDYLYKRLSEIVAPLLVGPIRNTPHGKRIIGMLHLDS


These binders were tested against T1, PUF4 RNA-binding domain (assay: Mg; RNA-MaP; 20 mM Na-HEPES pH 7.4, 30 mM KOAc, 0.75 mM MgCl2, 0.1% Tween-20, 5% glycerol, 0.1 mg/mL BSA, 2 mM DTT; 25 C; 0.0125-409.6 nM protein). Conditions: tags: N-His6-TEV cleaved; C-SNAP kept, Cy3B-labelled; label: tethered on chip by stalled RNA polymerase.

Binder | Kd [nM]
ACAAACCAACACUAUUAAUACAAAC (ssRNA) [Id_ii_S3_P4E.4_K4.3_C4.2_[T-1A]_H4.3_A4.1_F4.1_T4.2_[G10A]] | > 2300
ACAAACUCUAUAUUAUUAAGACAAAC (ssRNA) [Id_ii_S3_P5E.3_K5.2_C5.2_[C-2T]_[T-1C]_H5.2_A5.1_F5.1_T5.2_[T11A]_[A12G]] | 684
ACAAACGAUAUAUUAUUAGCACAAAC (ssRNA) [Id_ii_S3_P5E.3_K5.2_C5.2_[C-2G]_[T-1A]_H5.2_A5.1_F5.1_T5.2_[T11G]_[A12C]] | 164
ACAAACCAACACUAUUACGACAAAC (ssRNA) [Id_ii_S3_P4E.4_K4.3_C4.2_[T-1A]_H4.3_A4.1_F4.1_T4.2_[G10C]_[T11G]] | > 2300
ACAAACCCACACUAUUAAUACAAAC (ssRNA) [Id_ii_S3_P4E.4_K4.3_C4.2_[T-1C]_H4.3_A4.1_F4.1_T4.2_[G10A]] | > 2300
ACAAACCAACACUAUUACUACAAAC (ssRNA) [Id_ii_S3_P4E.4_K4.3_C4.2_[T-1A]_H4.3_A4.1_F4.1_T4.2_[G10C]] | > 2300
ACAAACUCUAUAUUAUUACGACAAAC (ssRNA) [Id_ii_S3_P5E.3_K5.2_C5.2_[C-2T]_[T-1C]_H5.2_A5.1_F5.1_T5.2_[T11C]_[A12G]] | 230
ACAAACAGUAUAUUAUUAGAACAAAC (ssRNA) [Id_ii_S3_P5E.3_K5.2_C5.2_[C-2A]_[T-1G]_H5.2_A5.1_F5.1_T5.2_[T11G]] | 35.5
ACAAACCAACACUAUUAGUACAAAC (ssRNA) [Id_ii_S3_P4E.4_K4.3_C4.2_[T-1A]_H4.3_A4.1_F4.1_T4.2] | > 2300
ACAAACGCUAUAUUAUUAAUACAAAC (ssRNA) [Id_ii_S3_P5E.3_K5.2_C5.2_[C-2G]_[T-1C]_H5.2_A5.1_F5.1_T5.2_[T11A]_[A12T]] | 480
ACAAACCUACACUAUUAACACAAAC (ssRNA) [Id_ii_S3_P4E.4_K4.3_C4.2_H4.3_A4.1_F4.1_T4.2_[G10A]_[T11C]] | > 2300
ACAAACAAACACUAUUACCACAAAC (ssRNA) [Id_ii_S3_P4E.4_K4.3_C4.2_[C-2A]_[T-1A]_H4.3_A4.1_F4.1_T4.2_[G10C]_[T11C]] | > 2300
ACAAACGGUAUAUUAUUAGGACAAAC (ssRNA) [Id_ii_S3_P5E.3_K5.2_C5.2_[C-2G]_[T-1G]_H5.2_A5.1_F5.1_T5.2_[T11G]_[A12G]] | 28.9
UCUCUUGUUAUUAUUAUCUCUU (ssRNA) [Ib_S1_P5E.1_K5.1_C5.1_H5.1_[T1G]_[G2T]_A5.1_F5.1_T5.1] | 56.7
ACAAACAUACACUAUUAUUACAAAC (ssRNA) [Id_ii_S3_P4E.4_K4.3_C4.2_[C-2A]_H4.3_A4.1_F4.1_T4.2_[G10T]] | 600
ACAAACCAACACUAUUAACACAAAC (ssRNA) [Id_ii_S3_P4E.4_K4.3_C4.2_[T-1A]_H4.3_A4.1_F4.1_T4.2_[G10A]_[T11C]] | > 2300
ACAAACCCACACUAUUAAGACAAAC (ssRNA) [Id_ii_S3_P4E.4_K4.3_C4.2_[T-1C]_H4.3_A4.1_F4.1_T4.2_[G10A]_[T11G]] | > 2300
ACAAACCGACACUAUUACCACAAAC (ssRNA) [Id_ii_S3_P4E.4_K4.3_C4.2_[T-1G]_H4.3_A4.1_F4.1_T4.2_[G10C]_[T11C]] | > 2300
ACAAACCAACACUAUUAUCACAAAC (ssRNA) [Id_ii_S3_P4E.4_K4.3_C4.2_[T-1A]_H4.3_A4.1_F4.1_T4.2_[G10T]_[T11C]] | > 2300
ACAAACAAACACUAUUAGCACAAAC (ssRNA) [Id_ii_S3_P4E.4_K4.3_C4.2_[C-2A]_[T-1A]_H4.3_A4.1_F4.1_T4.2_[T11C]] | > 2300
ACAAACCAACACUAUUAGCACAAAC (ssRNA) [Id_ii_S3_P4E.4_K4.3_C4.2_[T-1A]_H4.3_A4.1_F4.1_T4.2_[T11C]] | > 2300

Binder | Kd [nM]
ACAAACGAUAUAUUAUUAGGACAAAC (ssRNA) [Id_ii_S3_P5E.3_K5.2_C5.2_[C-2G]_[T-1A]_H5.2_A5.1_F5.1_T5.2_[T11G]_[A12G]] | 164
ACAAACAUACACUAUUAAAACAAAC (ssRNA) [Id_ii_S3_P4E.4_K4.3_C4.2_[C-2A]_H4.3_A4.1_F4.1_T4.2_[G10A]_[T11A]] | 1130
ACAAACACUAUAUUAUUAAGACAAAC (ssRNA) [Id_ii_S3_P5E.3_K5.2_C5.2_[C-2A]_[T-1C]_H5.2_A5.1_F5.1_T5.2_[T11A]_[A12G]] | 626
ACAAACAUACACUAUUACCACAAAC (ssRNA) [Id_ii_S3_P4E.4_K4.3_C4.2_[C-2A]_H4.3_A4.1_F4.1_T4.2_[G10C]_[T11C]] | 740
ACAAACAUACACUAUUAUAACAAAC (ssRNA) [Id_ii_S3_P4E.4_K4.3_C4.2_[C-2A]_H4.3_A4.1_F4.1_T4.2_[G10T]_[T11A]] | 902
ACAAACACUAUAUUAUUAAAACAAAC (ssRNA) [Id_ii_S3_P5E.3_K5.2_C5.2_[C-2A]_[T-1C]_H5.2_A5.1_F5.1_T5.2_[T11A]] | 485
UCUCUUGGCAUUAUUAUCUCUU (ssRNA) [Ib_S1_P5E.1_K5.1_C5.1_H5.1_[T1G]_[T3C]_A5.1_F5.1_T5.1] | 1040
UCUCUUCAUAUUAUUAUCUCUU (ssRNA) [Ib_S1_P5E.1_K5.1_C5.1_H5.1_[T1C]_[G2A]_A5.1_F5.1_T5.1] | > 2300
UCUCUUUGUAUUCUUUUCUCUU (ssRNA) [Ic_S1_P5E.1_K5.1_C5.1_H5.1_A5.1_[A7C]_F5.1_[A10T]_T5.1] | 28.6
ACAAACCCACACUAUUAAAACAAAC (ssRNA) [Id_ii_S3_P4E.4_K4.3_C4.2_[T-1C]_H4.3_A4.1_F4.1_T4.2_[G10A]_[T11A]] | > 2300
ACAAACCGACACUAUUAAAACAAAC (ssRNA) [Id_ii_S3_P4E.4_K4.3_C4.2_[T-1G]_H4.3_A4.1_F4.1_T4.2_[G10A]_[T11A]] | > 2300
ACAAACCGACACUAUUAUGACAAAC (ssRNA) [Id_ii_S3_P4E.4_K4.3_C4.2_[T-1G]_H4.3_A4.1_F4.1_T4.2_[G10T]_[T11G]] | > 2300
ACAAACGAUAUAUUAUUAAAACAAAC (ssRNA) [Id_ii_S3_P5E.3_K5.2_C5.2_[C-2G]_[T-1A]_H5.2_A5.1_F5.1_T5.2_[T11A]] | 704
ACAAACUUUAUAUUAUUACGACAAAC (ssRNA) [Id_ii_S3_P5E.3_K5.2_C5.2_[C-2T]_H5.2_A5.1_F5.1_T5.2_[T11C]_[A12G]] | 381
ACAAACAAACACUAUUAUGACAAAC (ssRNA) [Id_ii_S3_P4E.4_K4.3_C4.2_[C-2A]_[T-1A]_H4.3_A4.1_F4.1_T4.2_[G10T]_[T11G]] | > 2300
ACAAACAUACACUAUUAGAACAAAC (ssRNA) [Id_ii_S3_P4E.4_K4.3_C4.2_[C-2A]_H4.3_A4.1_F4.1_T4.2_[T11A]] | 846
ACAAACGAUAUAUUAUUAAUACAAAC (ssRNA) [Id_ii_S3_P5E.3_K5.2_C5.2_[C-2G]_[T-1A]_H5.2_A5.1_F5.1_T5.2_[T11A]_[A12T]] | 285
ACAAACUUUAUAUUAUUACCACAAAC (ssRNA) [Id_ii_S3_P5E.3_K5.2_C5.2_[C-2T]_H5.2_A5.1_F5.1_T5.2_[T11C]_[A12C]] | 268
ACAAACGAUAUAUUAUUAACACAAAC (ssRNA) [Id_ii_S3_P5E.3_K5.2_C5.2_[C-2G]_[T-1A]_H5.2_A5.1_F5.1_T5.2_[T11A]_[A12C]] | 313
ACAAACACUAUAUUAUUACAACAAAC (ssRNA) [Id_ii_S3_P5E.3_K5.2_C5.2_[C-2A]_[T-1C]_H5.2_A5.1_F5.1_T5.2_[T11C]] | 459
ACAAACGAUAUAUUAUUACCACAAAC (ssRNA) [Id_ii_S3_P5E.3_K5.2_C5.2_[C-2G]_[T-1A]_H5.2_A5.1_F5.1_T5.2_[T11C]_[A12C]] | 519

Binder | Kd [nM]
ACAAACCAACACUAUUAAGACAAAC (ssRNA) [Id_ii_S3_P4E.4_K4.3_C4.2_[T-1A]_H4.3_A4.1_F4.1_T4.2_[G10A]_[T11G]] | > 2300
ACAAACUUUAUAUUAUUAGCACAAAC (ssRNA) [Id_ii_S3_P5E.3_K5.2_C5.2_[C-2T]_H5.2_A5.1_F5.1_T5.2_[T11G]_[A12C]] | 82.9
ACAAACGCUAUAUUAUUAACACAAAC (ssRNA) [Id_ii_S3_P5E.3_K5.2_C5.2_[C-2G]_[T-1C]_H5.2_A5.1_F5.1_T5.2_[T11A]_[A12C]] | 812
ACAAACCCACACUAUUAACACAAAC (ssRNA) [Id_ii_S3_P4E.4_K4.3_C4.2_[T-1C]_H4.3_A4.1_F4.1_T4.2_[G10A]_[T11C]] | > 2300
ACAAACAUACACUAUUAAUACAAAC (ssRNA) [Id_ii_S3_P4E.4_K4.3_C4.2_[C-2A]_H4.3_A4.1_F4.1_T4.2_[G10A]] | 740
ACAAACCGACACUAUUAACACAAAC (ssRNA) [Id_ii_S3_P4E.4_K4.3_C4.2_[T-1G]_H4.3_A4.1_F4.1_T4.2_[G10A]_[T11C]] | > 2300
ACAAACUAUAUAUUAUUAUUACAAAC (ssRNA) [Id_ii_S3_P5E.3_K5.2_C5.2_[C-2T]_[T-1A]_H5.2_A5.1_F5.1_T5.2_[A12T]] | 19.2
UCUCUUUGUAUUUUUCUCUCUU (ssRNA) [Ib_S1_P5E.1_K5.1_C5.1_H5.1_A5.1_[A7T]_F5.1_[A10C]_T5.1] | 23.8
ACAAACAAACACUAUUAACACAAAC (ssRNA) [Id_ii_S3_P4E.4_K4.3_C4.2_[C-2A]_[T-1A]_H4.3_A4.1_F4.1_T4.2_[G10A]_[T11C]] | > 2300
ACAAACACUAUAUUAUUACGACAAAC (ssRNA) [Id_ii_S3_P5E.3_K5.2_C5.2_[C-2A]_[T-1C]_H5.2_A5.1_F5.1_T5.2_[T11C]_[A12G]] | 493
UCUCUUUGUAUUGUUUUCUCUU (ssRNA) [Ic_S1_P5E.1_K5.1_C5.1_H5.1_A5.1_[A7G]_F5.1_[A10T]_T5.1] | 42.9
ACAAACAAACACUAUUAAGACAAAC (ssRNA) [Id_ii_S3_P4E.4_K4.3_C4.2_[C-2A]_[T-1A]_H4.3_A4.1_F4.1_T4.2_[G10A]_[T11G]] | > 2300
ACAAACUAUAUAUUAUUACAACAAAC (ssRNA) [Id_ii_S3_P5E.3_K5.2_C5.2_[C-2T]_[T-1A]_H5.2_A5.1_F5.1_T5.2_[T11C]] | 13.5
ACAAACCCACACUAUUACCACAAAC (ssRNA) [Id_ii_S3_P4E.4_K4.3_C4.2_[T-1C]_H4.3_A4.1_F4.1_T4.2_[G10C]_[T11C]] | > 2300
ACAAACGAUAUAUUAUUACAACAAAC (ssRNA) [Id_ii_S3_P5E.3_K5.2_C5.2_[C-2G]_[T-1A]_H5.2_A5.1_F5.1_T5.2_[T11C]] | 173
ACAAACGUUAUAUUAUUACUACAAAC (ssRNA) [Id_ii_S3_P5E.3_K5.2_C5.2_[C-2G]_H5.2_A5.1_F5.1_T5.2_[T11C]_[A12T]] | 580
ACAAACAGUAUAUUAUUAAGACAAAC (ssRNA) [Id_ii_S3_P5E.3_K5.2_C5.2_[C-2A]_[T-1G]_H5.2_A5.1_F5.1_T5.2_[T11A]_[A12G]] | 36.4
ACAAACCGACACUAUUAUUACAAAC (ssRNA) [Id_ii_S3_P4E.4_K4.3_C4.2_[T-1G]_H4.3_A4.1_F4.1_T4.2_[G10T]] | > 2300
ACAAACAUACACUAUUAACACAAAC (ssRNA) [Id_ii_S3_P4E.4_K4.3_C4.2_[C-2A]_H4.3_A4.1_F4.1_T4.2_[G10A]_[T11C]] | 1470
ACAAACUAUAUAUUAUUAAUACAAAC (ssRNA) [Id_ii_S3_P5E.3_K5.2_C5.2_[C-2T]_[T-1A]_H5.2_A5.1_F5.1_T5.2_[T11A]_[A12T]] | 18.3
